Where two headings read alike, the source gives them in different places. Square brackets hold non-standard residues; d marks the D form. Ends that are not written are not given here. hArg = N=C(N)NCCCC[C@H](N)C(=O)O; Nle = CCCC[C@H](N)C(=O)O; Aib = CC(C)(N)C(=O)O
T1: truncated human P1R deleted for residues (24-181) (hP1R-delNt) (human, UniProt Q03431 182-593)
T1 sequence (looked up): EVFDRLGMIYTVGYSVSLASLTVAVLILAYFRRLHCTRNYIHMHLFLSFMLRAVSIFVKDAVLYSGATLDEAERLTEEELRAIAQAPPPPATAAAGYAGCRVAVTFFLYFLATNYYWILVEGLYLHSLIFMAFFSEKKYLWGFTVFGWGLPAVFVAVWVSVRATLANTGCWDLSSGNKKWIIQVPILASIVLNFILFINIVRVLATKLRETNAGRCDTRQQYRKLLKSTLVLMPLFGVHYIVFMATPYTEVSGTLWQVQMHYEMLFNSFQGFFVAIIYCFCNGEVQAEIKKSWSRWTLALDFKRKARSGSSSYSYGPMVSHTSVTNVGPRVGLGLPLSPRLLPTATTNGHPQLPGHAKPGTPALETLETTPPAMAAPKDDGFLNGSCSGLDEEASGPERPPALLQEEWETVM

T2: wild-type human PTH/PTHrP receptor (hP1R-WT) (human, UniProt Q03431 27-593)
T2 sequence (looked up): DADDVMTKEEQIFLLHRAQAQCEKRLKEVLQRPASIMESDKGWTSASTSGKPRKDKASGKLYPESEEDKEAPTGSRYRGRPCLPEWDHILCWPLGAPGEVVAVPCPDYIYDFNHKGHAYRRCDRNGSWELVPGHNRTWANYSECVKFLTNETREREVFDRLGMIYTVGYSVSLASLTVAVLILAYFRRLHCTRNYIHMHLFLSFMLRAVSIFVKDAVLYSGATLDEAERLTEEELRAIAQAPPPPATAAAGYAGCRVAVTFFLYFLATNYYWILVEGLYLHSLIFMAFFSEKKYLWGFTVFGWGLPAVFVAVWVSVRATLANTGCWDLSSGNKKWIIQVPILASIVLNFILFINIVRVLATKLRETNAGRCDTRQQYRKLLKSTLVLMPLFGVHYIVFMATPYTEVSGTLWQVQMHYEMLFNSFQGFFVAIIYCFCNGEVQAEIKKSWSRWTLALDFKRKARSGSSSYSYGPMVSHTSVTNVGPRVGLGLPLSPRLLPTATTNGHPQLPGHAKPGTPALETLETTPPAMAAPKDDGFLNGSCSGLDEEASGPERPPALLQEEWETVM

B1: [Nle^8,21,Tyr^34]PTH(1-34)amide (rat sequence) (peptide)
peptide: AVSEIQLXHNLGKHLASVERXQWLRKKLQDVHNY
modifications: Nle (norleucine) at 8 and 21; C-terminal amide
notes: also called 92 PTH(1-34); 92.5 PTH(1-34)
B2: [Aib^5,M]PTH(1-14) (peptide)
peptide: AVAE[Aib]QLMHQ[hArg]AKW-NH2
modifications: N-terminus assumed
SMILES: CSCC[C@H](NC(=O)[C@H](CC(C)C)NC(=O)[C@H](CCC(N)=O)NC(=O)C(C)(C)NC(=O)[C@H](CCC(=O)O)NC(=O)[C@H](C)NC(=O)[C@@H](NC(=O)[C@H](C)N)C(C)C)C(=O)N[C@@H](Cc1c[nH]cn1)C(=O)N[C@@H](CCC(N)=O)C(=O)N[C@@H](CCCCNC(=N)N)C(=O)N[C@@H](C)C(=O)N[C@@H](CCCCN)C(=O)N[C@@H](Cc1c[nH]c2ccccc12)C(N)=O
B3: [Aib^1,3,M]PTH(1-11) (peptide)
peptide: [Aib]V[Aib]EIQLMHQ[hArg]-NH2
modifications: N-terminus assumed
SMILES: CC[C@H](C)[C@H](NC(=O)[C@H](CCC(=O)O)NC(=O)C(C)(C)NC(=O)[C@@H](NC(=O)C(C)(C)N)C(C)C)C(=O)N[C@@H](CCC(N)=O)C(=O)N[C@@H](CC(C)C)C(=O)N[C@@H](CCSC)C(=O)N[C@@H](Cc1c[nH]cn1)C(=O)N[C@@H](CCC(N)=O)C(=O)N[C@@H](CCCCNC(=N)N)C(N)=O
notes: also called 682 [Aib^1,3, M]PTH (1-11); [Aib^1,3,Gln^10,Har^11]PTH(1-11)
B4: [Aib^1,3,Gln^10]PTH(1-10) (peptide)
peptide: [Aib]V[Aib]EIQLMHQ-NH2
modifications: N-terminus assumed
SMILES: CC[C@H](C)[C@H](NC(=O)[C@H](CCC(=O)O)NC(=O)C(C)(C)NC(=O)[C@@H](NC(=O)C(C)(C)N)C(C)C)C(=O)N[C@@H](CCC(N)=O)C(=O)N[C@@H](CC(C)C)C(=O)N[C@@H](CCSC)C(=O)N[C@@H](Cc1c[nH]cn1)C(=O)N[C@@H](CCC(N)=O)C(N)=O
notes: also called 684 [Aib^1,3, M]PTH (1-10); [Aib^1,3,M]PTH(1-10)
B5: [Ala^3,12,Gln^10,Har^11,Trp^14]PTH(1-14)amide (peptide)
peptide: AVAEIQLMHQ[hArg]AKW-NH2
modifications: N-terminus assumed
SMILES: CC[C@H](C)[C@H](NC(=O)[C@H](CCC(=O)O)NC(=O)[C@H](C)NC(=O)[C@@H](NC(=O)[C@H](C)N)C(C)C)C(=O)N[C@@H](CCC(N)=O)C(=O)N[C@@H](CC(C)C)C(=O)N[C@@H](CCSC)C(=O)N[C@@H](Cc1c[nH]cn1)C(=O)N[C@@H](CCC(N)=O)C(=O)N[C@@H](CCCCNC(=N)N)C(=O)N[C@@H](C)C(=O)N[C@@H](CCCCN)C(=O)N[C@@H](Cc1c[nH]c2ccccc12)C(N)=O
notes: X = Har; also called [M]PTH(1-14); 621 [M]PTH(1-14)

How the values were obtained:
[1] = molecular target: T1, truncated human P1R deleted for …; experiment: cell-based or functional assay
[2] = molecular target: T2, wild-type human PTH/PTHrP receptor …; experiment: cell-based or functional assay
[3] = molecular target: T2, wild-type human PTH/PTHrP receptor …; experiment: cell-based or functional assay; remark: listed apart in the source
[4] = molecular target: T1, truncated human P1R deleted for …; experiment: cell-based or functional assay; remark: listed apart in the source
[5] = molecular target: T2, wild-type human PTH/PTHrP receptor …; experiment: cell-based or functional assay; remark: listed apart in the source
[6] = molecular target: T2, wild-type human PTH/PTHrP receptor …; experiment: competition binding, 125I-[M]PTH(1-21) tracer, HKRK-B28 cells, 4 h at 4 C
Method: (§1) Competition Binding. Binding reactions were performed with HKRK-B28 cells or in COS-7 cells in 24-well plates. The cells were rinsed with 0.5 mL of binding buffer, and then treated successively with 100 μL binding buffer, 100 μL of binding buffer containing various amounts of unlabeled competitor ligand, and 100 μL of binding buffer containing ca. 100,000 cpm of ¹²⁵I-[M]PTH(1-21) or ¹²⁵I-[Aib^{1,3},M]PTH(1-21)} (ca. 26 fmol; final volume=300 μL). Incubations were 4 to 6 h at 4° C., at which time near equilibrium conditions were attained. Cells were then placed on ice, the binding medium was removed, and the monolayer was rinsed three times with 0.5 mL of cold binding buffer. The cells were subsequently lysed with 0.5 mL […] NaOH and counted for radioactivity. For each tracer and in each experiment, the non-specific binding was determined as the radioactivity that bound in the presence of the same unlabeled peptide at a concentration of 1 μM, and was ˜1% of total radioactivity added for each tracer. The maximum specific binding (B₀) was the total radioactivity bound in the absence of competing ligand, corrected for nonspecific binding, and for each tracer, ranged from 8% to 20% of the total radioactivity added. Nonlinear regression was used to calculate binding IC₅₀ values (see below). Scatchard transformations of homologous competition binding data derived from studies with 26 fmol of ¹²⁵I-[Aib^{1,3},M]PTH(1-21) were employed for estimations of apparent equilibrium dissociation constant (kDapps) and total number of ligand binding sites (Bₘₐₓ), assuming a single class of binding sites and equal affinities of the iodinated and non iodinated ligand.
Peptides PTH(1-34) ([Nle^{8,21}, Tyr³⁴]PTH(1-34)amide), [M]PTH(1-14) (M = Ala^{3,12}, Gln¹⁰, Har¹¹, Trp¹⁴), and [M]PTH(1-14 analogs, or C-terminally truncated derivatives thereof, containing α-aminoisobutyric acid (Aib) substitutions at the indicated positions were functionally evaluated in HKRK-B28 cells. “M” in [Aib^{1,3}, M]PTH(1-21) = Nle⁸, Gln¹⁰, Har¹¹, Ala¹², Trp¹⁴, Arg¹⁹ and Tyr²¹. The basal cAMP values (not subtracted) were 4.0 ± 0.1 pmole/well (n = 10). Peptides were based on the rat PTH sequence and were carboxy-amidated. Competition binding analyses were performed with ¹²⁵I-[M]PTH(1-21 )amide (Ala^{1,3}) as tracer for 4 h at 4° C. Data are means (±S.E.M.) Of the number of experiments indiated (n).

[7] = molecular target: T1, truncated human P1R deleted for …; experiment: competition binding vs 125I-[Aib1,3,M]PTH(1-21), COS-7 cells with hP1R-delNt
Method: (§2) Stock solutions of EGTA/trypsin and antibiotics were from GIBCO; fetal bovine serum was from Hyclone Laboratories (Logan, Utah). […] All cells, in 24-well plates, were treated with fresh media and shifted to 33° C. for 12 to 24 h prior to assay.
as §1

[8] = molecular target: T2, wild-type human PTH/PTHrP receptor …; experiment: competition binding, 125I-[Aib1,3,M]PTH(1-21) tracer, COS-7 cells expressing hP1R-WT
Method: as §1

[9] = molecular target: wild-type human PTH/PTHrP receptor (hP1R-WT) (human) (UniProt Q03431); experiment: cell-based or functional assay
[10] = molecular target: wild-type human PTH/PTHrP receptor (hP1R-WT) (human) (UniProt Q03431); experiment: competition binding, 125I-[M]PTH(1-21) tracer, HKRK-B28 cells
[11] = molecular target: T1, truncated human P1R deleted for …; experiment: competition binding, 125I-[Aib1,3,M]PTH(1-21) tracer, COS-7 cells expressing hP1R-delNt
Method: as §2, §1

[12] = molecular target: T2, wild-type human PTH/PTHrP receptor …; experiment: cell-based or functional assay; remark: listed apart in the source
[13] = molecular target: T1, truncated human P1R deleted for …; experiment: cell-based or functional assay; remark: listed apart in the source
[14] = molecular target: T2, wild-type human PTH/PTHrP receptor …; experiment: competition binding vs 125I-[Aib1,3,M]PTH(1-21), COS-7 cells with hP1R-WT
[15] = molecular target: T2, wild-type human PTH/PTHrP receptor …; experiment: radioligand binding to HKRK-B28 cells

| Binder | cAMP EC50 [2] [nM] | cAMP EMax(obs.) [2] [pmole/well] | cAMP EC50 [3] [nM] | cAMP EMax(obs.) [3] [pmole/well] | cAMP EC50 [4] [nM] | cAMP EMax(obs.) [4] [pmole/well] | IC50 [6] [nM] | binding result [7] | IC50 [8] [nM] | further results |
| --- | --- | --- | --- | --- | --- | --- | --- | --- | --- | --- |
| [Aib]V[Aib]EIQLMHQ[hArg]AKWLNSMRRVEWLRKKLQDVHNY-NH2 [[Aib^1,3,Gln^10,Har^11,Ala^12,Trp^14,Arg^19,Tyr^34]hPTH(1-34)] | – | – | – | – | – | – | – | – | – | cAMP EC50 [1]: 1.9 nM |
| B1 | 2.5 | 280 | 1.4 | 240 | 680 | 220 | 18 | no binding | 12 | PLC EC50 [3]: 17 nM; PLC EMAX(obs.) [3]: 4.2 foldxbasal; cAMP EC50 in SaOS-2 cells [5]: 0.2 nM |
| B2 | – | – | – | – | – | – | – | – | – | cAMP EC50 [9]: 66000 nM; cAMP EMax(obs.) [9]: 169 pmole/well; fold reduction in affinity relative to [M]PTH(1-14) [10]: < 10 fold |
| B3 | 4 | 243 | 2.1 | 190 | 2 | 220 | 970 | – | 16000 | IC50 [11]: 13000 nM |
| [Aib]V[Aib]EIQLMHNLGKHLNSMERVEWLRKKLQDVHNY-NH2 [[Aib^1,3,Tyr^34]-hPTH(1-34)] | – | – | – | – | – | – | – | – | – | cAMP EC50 [12]: 0.67 nM; cAMP EC50 [13]: 43 nM |
| B4 | 16000 | 111 | 100000 | 120 | 53000 | 84 | – | no binding | – | binding result [14]: no binding |
| AVSEIQLMHNLGKH-NH2 (also called 521 PTH(1-14)) [native PTH(1-14) (rat sequence, amide)] | – | – | 90000 | 140 | 140000 | 110 | – | no binding | – | – |
| B5 | 100 | 270 | 49 | 240 | 40 | 220 | 13000 | – | 20000 | PLC EC50 [3]: 4700 nM; PLC EMAX(obs.) [3]: 3.9 foldxbasal; cAMP EC50 in SaOS-2 cells [5]: 340 nM; IC50 [11]: 17400 nM |
| AVAEIQL[Nle]HQ[hArg]AKWY-NH2 (also: 125I radiolabel, iodinated residue not given here) [^125I-[Ala^3,12Nle^8Gln^10,Har^11,Trp^14,Tyr^15]PTH(1-15)amide] | – | – | – | – | – | – | – | – | – | binding result [15]: no binding |
